In patent publication US20210139545A1 (IBA, published 2021):

What was measured:
[1] = target: T1, cytochrome b562 with C-terminally fused Strep-tagII (E. coli); assay: affinity chromatography, overloaded Sepharose column, washed, biotin elution
T1 construct: also called Cytb562-StrepII; Cytb562-StrepIII

[2] = target: T1, cytochrome b562 with C-terminally fused …; assay: affinity chromatography, capture from dilute solution (500 µg applied, 1 mg mutein)
[3] = target: T2, E. coli alkaline phosphatase Strep-tag®II fusion protein (E. coli, UniProt P00634 22-471 = phosphatase); assay: ELISA, mutein coated, BAP-StrepII titrated
T2 construct: mature; also called BAP-StrepII; BAP-StrepIII

[4] = target: T2, E. coli alkaline phosphatase …; assay: ELISA, second experiment, mutein coated, BAP-StrepII titrated
[5] = target: T1, cytochrome b562 with C-terminally fused …; assay: affinity chromatography, retention after overload; tied to m45 by Table 9 (308 % against 11 %)

B1: mutein“1”-m41 (designed binder)
chain: EAGITGTWYNQLGSTFIVTAGADGALTGTYVTARGNAESRYVLTGRYDSAPATDGSGTALGWTVAWKNNYRNAHSATTWSGQYVGGAEARINTQWLLTSGTTEAWYSTLVGHDTFTKVKPSAAS
notes: Library 3 clone on mutein “1”
Retained Cytb562-StrepII [1]: 289 µg | Retained Cytb562-StrepII per immobilized mutein [1]: 0.2 µg/µg | Retained Cytb562-StrepII per immobilized mutein relative to mutein “1” [1]: 155% | yield of Cytb562-StrepII applied [2]: 47% | (Δ(A405-A595)/Δt)max [3]: 613 mOD | KD(mutein“1”)/KDmutein [3]: 8.5 | Kd [3]: 13 nM

B2: mutein“1”-m302 (designed binder)
chain: EAGITGTWYNQLGSTFIVTAGADGALTGTYVTARGNAESRYVLTGRYDSAPATDGSGTALGWTVAWKNNYRNAHSATTWSGQYVGGAEARINTQWLLTSGTTEHWYSTLVGHDTFTKVKPSAAS
notes: Library 7 clone on mutein “1”, 118 and 119 deleted
Retained Cytb562-StrepII [1]: 350 µg | Retained Cytb562-StrepII per immobilized mutein [1]: 0.28 µg/µg | Retained Cytb562-StrepII per immobilized mutein relative to mutein “1” [1]: 221% | yield of Cytb562-StrepII applied [2]: 63% | (Δ(A405-A595)/Δt)max [3]: 726 mOD | KD(mutein“1”)/KDmutein [3]: 22 | Kd [3]: 5 nM

B3: mutein“1”-m212 (designed binder)
chain: EAGITGTWYNQLGSTFIVTAGADGALTGTYVTARGNAESRYVLTGRYDSAPATDGSGTALGWTVAWKNNYRNAHSATTWSGQYVGGAEARINTQWLLTSGTTEHWLSTLVGHDTFTKVKPSAAS
notes: Library 6 clone on mutein “1”, 118 and 119 deleted
Retained Cytb562-StrepII [1]: 390 µg | Retained Cytb562-StrepII per immobilized mutein [1]: 0.25 µg/µg | Retained Cytb562-StrepII per immobilized mutein relative to mutein “1” [1]: 197% | yield of Cytb562-StrepII applied [2]: 47% | (Δ(A405-A595)/Δt)max [3]: 607 mOD | KD(mutein“1”)/KDmutein [3]: 6.5 | Kd [3]: 17 nM

B4: mutein“1”-m301 (designed binder)
chain: EAGITGTWYNQLGSTFIVTAGADGALTGTYVTARGNAESRYVLTGRYDSAPATDGSGTALGWTVAWKNNYRNAHSATTWSGQYVGGAEARINTQWLLTSGTTEHWMSTLVGHDTFTKVKPSAAS
notes: as for B2
Retained Cytb562-StrepII [1]: 400 µg | Retained Cytb562-StrepII per immobilized mutein [1]: 0.28 µg/µg | Retained Cytb562-StrepII per immobilized mutein relative to mutein “1” [1]: 225% | yield of Cytb562-StrepII applied [2]: 57% | (Δ(A405-A595)/Δt)max [3]: 725 mOD | KD(mutein“1”)/KDmutein [3]: 11 | Kd [3]: 10 nM

B5: mutein“1”-m207 (designed binder)
chain: EAGITGTWYNQLGSTFIVTAGADGALTGTYVTARGNAESRYVLTGRYDSAPATDGSGTALGWTVAWKNNYRNAHSATTWSGQYVGGAEARINTQWLLTSGTTETWLSTLVGHDTFTKVKPSAAS
notes: as for B3
Retained Cytb562-StrepII [1]: 358 µg | Retained Cytb562-StrepII per immobilized mutein [1]: 0.29 µg/µg | Retained Cytb562-StrepII per immobilized mutein relative to mutein “1” [1]: 229% | yield of Cytb562-StrepII applied [2]: 55% | (Δ(A405-A595)/Δt)max [3]: 493 mOD | KD(mutein“1”)/KDmutein [3]: 4.1 | Kd [3]: 27 nM

B6: mutein m402 (designed binder)
chain: EAGITGTWYNQLGSTFIVTAGADGALTGTYACARGNAECRYVLTGRYDSAPATDGSGTALGWTVAWKNNYRNAHSATTWSGQYVGGAEARINTQWLLTSGTTEANAWKSTLVGHDTFTKVKPSAAS
notes: Library 1 clone
Retained Cytb562-StrepII [1]: 111 µg | Retained Cytb562-StrepII per immobilized mutein [1]: 0.14 µg/µg | Retained Cytb562-StrepII per immobilized mutein relative to mutein “1” [1]: 111% | yield of Cytb562-StrepII applied [2]: 31% | Kd [3]: 92 nM

B7: mutein“1”-m111 (designed binder)
chain: EAGITGTWYNQLGSTFIVTAGADGALTGTYVTARGNAESRYVLTGRYDSAPATDGSGTALGWTVAWKNNYRNAHSATTWSGQYVGGAEARINTQWLLTSGTTEYNALWSTLVGHDTFTKVKPSAAS
notes: Library 5 clone on mutein “1”
Retained Cytb562-StrepII [1]: 318 µg | Retained Cytb562-StrepII per immobilized mutein [1]: 0.31 µg/µg | Retained Cytb562-StrepII per immobilized mutein relative to mutein “1” [1]: 246% | yield of Cytb562-StrepII applied [2]: 67% | (Δ(A405-A595)/Δt)max [3]: 492 mOD | KD(mutein“1”)/KDmutein [3]: 8.5 | Kd [3]: 13 nM

B8: mutein“1”-m36 (designed binder)
chain: EAGITGTWYNQLGSTFIVTAGADGALTGTYVTARGNAESRYVLTGRYDSAPATDGSGTALGWTVAWKNNYRNAHSATTWSGQYVGGAEARINTQWLLTSGTTEYNAFMSTLVGHDTFTKVKPSAAS
notes: Library 3 clone on mutein “1”
Retained Cytb562-StrepII [1]: 429 µg | Retained Cytb562-StrepII per immobilized mutein [1]: 0.32 µg/µg | Retained Cytb562-StrepII per immobilized mutein relative to mutein “1” [1]: 254% | yield of Cytb562-StrepII applied [2]: 61% | (Δ(A405-A595)/Δt)max [3]: 945 mOD | KD(mutein“1”)/KDmutein [3]: 9.2 | Kd [3]: 12 nM

B9: mutein“1”-m101 (designed binder)
chain: EAGITGTWYNQLGSTFIVTAGADGALTGTYVTARGNAESRYVLTGRYDSAPATDGSGTALGWTVAWKNNYRNAHSATTWSGQYVGGAEARINTQWLLTSGTTEYNAFLSTLVGHDTFTKVKPSAAS
notes: Library 5 clone on mutein “1”
(Δ(A405-A595)/Δt)max [3]: 589 mOD | KD(mutein“1”)/KDmutein [3]: 7.9 | Kd [3]: 14 nM

B10: mutein“1”-m4 (designed binder)
chain: EAGITGTWYNQLGSTFIVTAGADGALTGTYVTARGNAESRYVLTGRYDSAPATDGSGTALGWTVAWKNNYRNAHSATTWSGQYVGGAEARINTQWLLTSGTTEDNAGFSTLVGHDTFTKVKPSAAS
notes: Library 3 clone on mutein “1”
(Δ(A405-A595)/Δt)max [4]: 518 mOD | Kd [4]: 12 nM | Retained Cytb562-StrepII [1]: 564 µg | Retained Cytb562-StrepII per immobilized mutein [1]: 0.35 µg/µg | Retained Cytb562-StrepII per immobilized mutein relative to mutein “1” [1]: 280% | yield of Cytb562-StrepII applied [2]: 64% | (Δ(A405-A595)/Δt)max [3]: 716 mOD | KD(mutein“1”)/KDmutein [3]: 12.2 | Kd [3]: 9 nM

B11: mutein m4001 (designed binder)
chain: EAGITGTWYNQLGSTFIVTAGADGALTGTYACGRGNAECRYVLTGRYDSAPATDGSGTALGWTVAWKNNYRNAHSATTWSGQYVGGAEARINTQWLLTSGTTEANAWKSTLVGHDTFTKVKPSAAS
notes: Library 2 clone
Kd [4]: 27 nM | Retained Cytb562-StrepII [1]: 175 µg | Retained Cytb562-StrepII per immobilized mutein [1]: 0.16 µg/µg | Retained Cytb562-StrepII per immobilized mutein relative to mutein “1” [1]: 127% | yield of Cytb562-StrepII applied [2]: 34% | Kd [3]: 20 nM

B12: mutein“1”-m45 (designed binder)
chain: EAGITGTWYNQLGSTFIVTAGADGALTGTYVTARGNAESRYVLTGRYDSAPATDGSGTALGWTVAWKNNYRNAHSATTWSGQYVGGAEARINTQWLLTSGTTEYNAGFSTLVGHDTFTKVKPSAAS
notes: Library 3 clone on mutein “1”
Retained Cytb562-StrepII [1]: 472 µg | Retained Cytb562-StrepII per immobilized mutein [1]: 0.39 µg/µg | Retained Cytb562-StrepII per immobilized mutein relative to mutein “1” [1]: 308% | retained Cytb562-StrepII relative to wt streptavidin [5]: 28 fold | yield of Cytb562-StrepII applied [2]: 67% | (Δ(A405-A595)/Δt)max [3]: 566 mOD | KD(mutein“1”)/KDmutein [3]: 6.1 | Kd [3]: 18 nM

B13: mutein“1”-m23 (designed binder)
chain: EAGITGTWYNQLGSTFIVTAGADGALTGTYVTARGNAESRYVLTGRYDSAPATDGSGTALGWTVAWKNNYRNAHSATTWSGQYVGGAEARINTQWLLTSGTTEYNAYASTLVGHDTFTKVKPSAAS
notes: Library 3 clone on mutein “1”
(Δ(A405-A595)/Δt)max [4]: 644 mOD | Kd [4]: 13 nM | Retained Cytb562-StrepII [1]: 479 µg | Retained Cytb562-StrepII per immobilized mutein [1]: 0.31 µg/µg | Retained Cytb562-StrepII per immobilized mutein relative to mutein “1” [1]: 245% | yield of Cytb562-StrepII applied [2]: 60% | (Δ(A405-A595)/Δt)max [3]: 968 mOD | KD(mutein“1”)/KDmutein [3]: 9.2 | Kd [3]: 12 nM
